Measurements reported in US10047131B2, “Peptides and combination of peptides for use in immunotherapy against ovarian cancer and other cancers” (immatics biotechnologies GmbH, priority 2015, dated 2018).

What follows are substances tested against HLA-A*02:01 (Homo sapiens, UniProt P04439, D140Y/D185E/D98H/E176V/E277Q/G131W/G231S/I119V/I121R/I166T/I218V/L300P/L318F/N151K/N90K/P208A/P217A/Q86G/Q94H/R138H/R169H/T345S) (assay: MHC binding assay (UV-ligand exchange, ELISA of exchange yield)). Settings: binding to HLA-A*02:01, UV-ligand exchange.
In short: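 Peptide–MHC complexes made by UV-ligand exchange, where a UV-cleavable peptide is replaced by the test peptide. Exchange yield measured by ELISA: complexes diluted 100-fold on streptavidin-coated plates, stabilized complexes detected with HRP anti-β2m, TMB read at 450 nm.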

| Substance | Peptide exchange (MHC class I binding score, peptide exchange yield) |
| --- | --- |
| 320 (KMFEFVEPLL; listed as Homo sapiens) [compound 320] | “++++” (≥75% = ++++) |
| 322 (TLMTSLPAL; listed as Homo sapiens) [compound 322] | “+++” (≥50 = +++) |
| 327 (GLAPFTEGISFV; listed as Homo sapiens) [compound 327] | “+++” (≥50 = +++) |
| 328 (ALNDQVFEI; listed as Homo sapiens) [compound 328] | “+++” (≥50 = +++) |
| 332 (YLISELEAA; listed as Homo sapiens) [compound 332] | “+++” (≥50 = +++) |
| 333 (FLPDANSSV; listed as Homo sapiens) [compound 333] | “++” (≥20% = ++) |
| 334 (TLTKVLVAL; listed as Homo sapiens) [compound 334] | “+++” (≥50 = +++) |
| 335 (YSLSSVVTV; listed as Homo sapiens) [compound 335] | “+++” (≥50 = +++) |
| 337 (HLLSELEAAPYL; listed as Homo sapiens) [compound 337] | “++++” (≥75% = ++++) |
| 339 (GLWEIENNPTVKA; listed as Homo sapiens) [compound 339] | “++++” (≥75% = ++++) |
| 345 (VIWKALIHL; listed as Homo sapiens) [compound 345] | “+++” (≥50 = +++) |
| 346 (LLDSKVPSV; listed as Homo sapiens) [compound 346] | “+++” (≥50 = +++) |
| 347 (SLFKHDPAAWEA; listed as Homo sapiens) [compound 347] | “++++” (≥75% = ++++) |
| 348 (ILLDVKTRL; listed as Homo sapiens) [compound 348] | “++++” (≥75% = ++++) |
| 351 (SLIPNLRNV; listed as Homo sapiens) [compound 351] | “+++” (≥50 = +++) |
| 353 (YLFEMDSSL; listed as Homo sapiens) [compound 353] | “++” (≥20% = ++) |
| 355 (SIQQSIERLLV; listed as Homo sapiens) [compound 355] | “++” (≥20% = ++) |
| 358 (ALDEYTSEL; listed as Homo sapiens) [compound 358] | “++++” (≥75% = ++++) |

| Substance | Peptide exchange (MHC class I binding score, peptide exchange yield) |
| --- | --- |
| 362 (TLYGLSVLL; listed as Homo sapiens) [compound 362] | “+++” (≥50 = +++) |
| 363 (KVLDVSDLESV; listed as Homo sapiens) [compound 363] | “++” (≥20% = ++) |
| 367 (SLQNHNHQL; listed as Homo sapiens) [compound 367] | “+++” (≥50 = +++) |
| 369 (GLFPEHLIDV; listed as Homo sapiens) [compound 369] | “+++” (≥50 = +++) |
| 371 (FLQAHLHTA; listed as Homo sapiens) [compound 371] | “++++” (≥75% = ++++) |
| 372 (TMLLNIPLV; listed as Homo sapiens) [compound 372] | “++” (≥20% = ++) |
| 373 (SLLEDKGLAEV; listed as Homo sapiens) [compound 373] | “++” (≥20% = ++) |
| 375 (SLTETIEGV; listed as Homo sapiens) [compound 375] | “++” (≥20% = ++) |
| 376 (AMFESSQNVLL; listed as Homo sapiens) [compound 376] | “++” (≥20% = ++) |
| 378 (ALGYFVPYV; listed as Homo sapiens) [compound 378] | “+++” (≥50 = +++) |
| 379 (IMEGTLTRV; listed as Homo sapiens) [compound 379] | “++” (≥20% = ++) |
| 381 (FIDEAYVEV; listed as Homo sapiens) [compound 381] | “++” (≥20% = ++) |
| 382 (ALQNYIKEA; listed as Homo sapiens) [compound 382] | “++” (≥20% = ++) |
| 383 (ALLELENSVTL; listed as Homo sapiens) [compound 383] | “+++” (≥50 = +++) |
| 384 (ILFANPNIFV; listed as Homo sapiens) [compound 384] | “+++” (≥50 = +++) |
| 386 (ILFRYPLTI; listed as Homo sapiens) [compound 386] | “+++” (≥50 = +++) |
| 387 (ALFQATAEV; listed as Homo sapiens) [compound 387] | “++++” (≥75% = ++++) |

Next, values leading:

| Peptide exchange (MHC class I binding score, peptide exchange yield) | Substance |
| --- | --- |
| “++++” (≥75% = ++++) | 321 (GLFEDVTQPGILL; listed as Homo sapiens) [compound 321] |
| “+++” (≥50 = +++) | 324 (FLYDEIEAEV; listed as Homo sapiens) [compound 324] |
| “+++” (≥50 = +++) | 325 (FIMPATVADATAV; listed as Homo sapiens) [compound 325] |
| “+++” (≥50 = +++) | 326 (FLPEALDFV; listed as Homo sapiens) [compound 326] |
| “++++” (≥75% = ++++) | 329 (FLVTLNNVEV; listed as Homo sapiens) [compound 329] |
| “+++” (≥50 = +++) | 330 (QLALKVEGV; listed as Homo sapiens) [compound 330] |
| “+++” (≥50 = +++) | 331 (KVDTVWVNV; listed as Homo sapiens) [compound 331] |
| “+++” (≥50 = +++) | 336 (ILLTAIVQV; listed as Homo sapiens) [compound 336] |
| “++++” (≥75% = ++++) | 340 (ALLSMTFPL; listed as Homo sapiens) [compound 340] |
| “+++” (≥50 = +++) | 341 (SQIALNEKLVNL; listed as Homo sapiens) [compound 341] |
| “+++” (≥50 = +++) | 342 (HIYDKVMTV; listed as Homo sapiens) [compound 342] |
| “+++” (≥50 = +++) | 343 (SLLEVNEESTV; listed as Homo sapiens) [compound 343] |
| “+++” (≥50 = +++) | 344 (YLQDQHLLLTV; listed as Homo sapiens) [compound 344] |
| “++++” (≥75% = ++++) | 349 (SLTEYLQNV; listed as Homo sapiens) [compound 349] |
| “+++” (≥50 = +++) | 350 (ALLDVTHSELTV; listed as Homo sapiens) [compound 350] |
| “+++” (≥50 = +++) | 352 (SLLELLHIYV; listed as Homo sapiens) [compound 352] |

| Peptide exchange (MHC class I binding score, peptide exchange yield) | Substance |
| --- | --- |
| “++” (≥20% = ++) | 354 (LILEGVDTV; listed as Homo sapiens) [compound 354] |
| “+++” (≥50 = +++) | 356 (KLLGKLPEL; listed as Homo sapiens) [compound 356] |
| “+++” (≥50 = +++) | 357 (SMHDLVLQV; listed as Homo sapiens) [compound 357] |
| “+++” (≥50 = +++) | 359 (YLLPESVDL; listed as Homo sapiens) [compound 359] |
| “+++” (≥50 = +++) | 361 (ALYELEGTTV; listed as Homo sapiens) [compound 361] |
| “+++” (≥50 = +++) | 364 (LLQNEQFEL; listed as Homo sapiens) [compound 364] |
| “+++” (≥50 = +++) | 365 (YVIDQGETDVYV; listed as Homo sapiens) [compound 365] |
| “+++” (≥50 = +++) | 366 (RLLDMGETDLML; listed as Homo sapiens) [compound 366] |
| “+++” (≥50 = +++) | 370 (SLLQDLVSV; listed as Homo sapiens) [compound 370] |
| “++” (≥20% = ++) | 374 (FLLQQHLISA; listed as Homo sapiens) [compound 374] |
| “++” (≥20% = ++) | 377 (FLLDSSASV; listed as Homo sapiens) [compound 377] |
| “++” (≥20% = ++) | 380 (TLIEDEIATI; listed as Homo sapiens) [compound 380] |
| “++” (≥20% = ++) | 385 (SLLEQGLVEA; listed as Homo sapiens) [compound 385] |
| “+++” (≥50 = +++) | 388 (SLTIDGIRYV; listed as Homo sapiens) [compound 388] |
| “++” (≥20% = ++) | 389 (LLADVTHLL; listed as Homo sapiens) [compound 389] |
